Data reported in patent US20200062856A1 (XDCEXPLORER SHANGHAI, published 2020).

Experiments:
[1] = target: mouse TPBG protein, full-length, on the cell surface (mouse) (UniProt Q9Z0L0); experiment: FACS, CHOk1-mTPBG 3A3 cells
[2] = target: human TPBG protein, full-length, on the cell surface (human) (UniProt Q13641); experiment: FACS, CHOk1-hTPBG 3A2F1 cells
[3] = target: cynomolgus TPBG protein, full-length, on the cell surface (cynomolgus) (UniProt Q4R8Y9); experiment: FACS, CHOk1-cTPBG 3F13G4 cells
[4] = target: human TPBG protein, full-length, on the cell surface (human) (UniProt Q13641); experiment: FACS, HEK293 clone 293F-hTPBG 4A8
[5] = target: human TPBG protein, full-length, on the cell surface (human) (UniProt Q13641); experiment: FACS, HEK293 clone 293F-hTPBG 4A9
[6] = target: human TPBG protein, full-length, on the cell surface (human) (UniProt Q13641); experiment: FACS, HEK293 clone 293F-hTPBG 4B9
[7] = target: human TPBG protein, full-length, on the cell surface (human) (UniProt Q13641); experiment: FACS, HEK293 clone 293F-hTPBG 4C3
[8] = target: human TPBG protein, full-length, on the cell surface (human) (UniProt Q13641); experiment: FACS, HEK293 clone 293F-hTPBG 4C5
[9] = target: human TPBG protein, full-length, on the cell surface (human) (UniProt Q13641); experiment: FACS, HEK293 clone 293F-hTPBG 4E1
[10] = target: human TPBG protein, full-length, on the cell surface (human) (UniProt Q13641); experiment: FACS, HEK293 clone 293F-hTPBG 4F9
[11] = target: human TPBG protein, full-length, on the cell surface (human) (UniProt Q13641); experiment: FACS, HEK293 clone 293F-hTPBG 4G1
[12] = target: human TPBG protein, full-length, on the cell surface (human) (UniProt Q13641); experiment: FACS, HEK293 clone 293F-hTPBG 4G6
[13] = target: human TPBG protein, full-length, on the cell surface (human) (UniProt Q13641); experiment: FACS, HEK293 clone 293F-hTPBG 5A9
[14] = target: human TPBG protein, full-length, on the cell surface (human) (UniProt Q13641); experiment: FACS, HEK293 clone 293F-hTPBG 5D4
[15] = target: human TPBG protein, full-length, on the cell surface (human) (UniProt Q13641); experiment: FACS, HEK293 clone 293F-hTPBG 5E5
[16] = target: human TPBG protein, full-length, on the cell surface (human) (UniProt Q13641); experiment: FACS, HEK293 clone 293F-hTPBG 5E6
[17] = target: human TPBG protein, full-length, on the cell surface (human) (UniProt Q13641); experiment: FACS, HEK293 clone 293F-hTPBG 5G8
[18] = target: human TPBG protein, full-length, on the cell surface (human) (UniProt Q13641); experiment: FACS, HEK293 clone 293F-hTPBG 5H6
[19] = target: human TPBG protein, full-length, on the cell surface (human) (UniProt Q13641); experiment: FACS, HEK293 clone 293F-hTPBG 4H12
[20] = target: human TPBG protein, full-length, on the cell surface (human) (UniProt Q13641); experiment: FACS, HEK293 clone 293F-hTPBG 5A11
[21] = target: human TPBG protein, full-length, on the cell surface (human) (UniProt Q13641); experiment: FACS, HEK293 clone 293F-hTPBG 5C12
[22] = target: human TPBG protein, full-length, on the cell surface (human) (UniProt Q13641); experiment: FACS, HEK293 clone 293F-hTPBG 5G11
[23] = target: human TPBG protein, full-length, on the cell surface (human) (UniProt Q13641); experiment: FACS, HEK293 clone 293F-hTPBG 4E1 (NO 8)
[24] = target: T1, cynomolgus TPBG protein, full-length, on the cell surface (cynomolgus, UniProt Q4R8Y9 35-420); experiment: FACS on CHOk1-cTPBG cells
T1 construct: whole, on cells; also called cTPBG; CHOk1-cTPBG
T1 sequence (looked up): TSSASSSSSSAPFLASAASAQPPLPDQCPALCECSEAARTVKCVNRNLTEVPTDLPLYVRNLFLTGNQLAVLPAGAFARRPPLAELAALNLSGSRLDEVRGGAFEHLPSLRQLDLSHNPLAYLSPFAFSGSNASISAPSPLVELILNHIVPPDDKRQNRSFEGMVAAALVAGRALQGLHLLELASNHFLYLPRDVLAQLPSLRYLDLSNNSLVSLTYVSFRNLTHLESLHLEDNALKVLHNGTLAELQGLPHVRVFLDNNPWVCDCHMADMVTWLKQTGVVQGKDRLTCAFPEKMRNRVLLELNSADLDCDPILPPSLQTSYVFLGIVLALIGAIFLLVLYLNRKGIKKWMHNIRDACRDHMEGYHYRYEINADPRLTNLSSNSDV
Excerpt: (§1) The stable cell lines CHOk1-hTPBG, CHOk1-cTPBG, CHOk1-mTPBG (i.e. the CHOk1-hTPBG 3A2F1, CHOk1-cTPBG 3F13G4 and CHOk1-mTPBG 3A3 shown in Table 6) and CHO-k1 cells were expanded to a 90% of confluency in T-75 cell culture flasks, and the culture medium were removed. Cells were then rinsed twice with HBSS buffer (Hanks Balanced Salt Solution, purchased from Invitrogen) and […] with enzyme-free cell dissociation buffer (Versene solution was purchased from Life technology) and harvested. Harvested cells were rinsed with HBSS buffer twice and counted before diluting with HBSS buffer to 2×10⁶ cells/mL, and 10% goat serum blocking buffer was then added, wherein the percentage is the mass percentage. Cells were incubated on ice for 30 min, and then washed twice with HBSS buffer by centrifugation. […] The plate was washed with the FACS buffer twice by centrifugation, and 100 μL per well of fluorescence (Alexa 488) labeled secondary antibody (purchased from Invitrogen) was then added and incubated on ice for 1 h. […] The results were measured and analyzed by FACS (FACS Calibur, purchased from BD). The data was analyzed by software (CellQuest) to obtain the mean fluorescence intensity (MFI) of the cells, follow by calculating EC50 value by software (GraphPad Prism) analysis and data fitting.

[25] = target: T2, human TPBG protein, full-length, on the cell surface (human, UniProt Q13641 32-420); experiment: FACS on CHOk1-hTPBG cells
T2 construct: whole, on cells; Transfected HEK293 (293F-hTPBG clones) and CHO-k1 (CHOk1-hTPBG 3A2F1) cells; also used here for endogenous TPBG on the TPBG-positive tumour lines NCI-H1568, NCI-H1975 and MDA-MB-468 in the killing assays; also called hTPBG; 5T4
T2 sequence (looked up): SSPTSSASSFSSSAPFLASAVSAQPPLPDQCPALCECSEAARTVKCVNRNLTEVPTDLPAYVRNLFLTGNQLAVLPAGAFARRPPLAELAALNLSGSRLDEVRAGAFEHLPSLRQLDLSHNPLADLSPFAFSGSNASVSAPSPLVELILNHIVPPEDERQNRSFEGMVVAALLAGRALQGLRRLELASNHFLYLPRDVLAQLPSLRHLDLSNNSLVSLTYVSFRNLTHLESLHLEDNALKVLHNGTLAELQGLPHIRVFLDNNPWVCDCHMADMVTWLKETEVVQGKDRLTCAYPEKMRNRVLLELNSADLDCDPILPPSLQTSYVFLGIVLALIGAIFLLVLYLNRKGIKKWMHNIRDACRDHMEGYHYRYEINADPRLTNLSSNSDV
Excerpt: as §1

[26] = target: T3, mouse TPBG protein, full-length, on the cell surface (mouse, UniProt Q9Z0L0 32-426); experiment: FACS on CHOk1-mTPBG cells
T3 construct: whole, on cells; also called mTPBG; CHOk1-mTPBG
T3 sequence (looked up): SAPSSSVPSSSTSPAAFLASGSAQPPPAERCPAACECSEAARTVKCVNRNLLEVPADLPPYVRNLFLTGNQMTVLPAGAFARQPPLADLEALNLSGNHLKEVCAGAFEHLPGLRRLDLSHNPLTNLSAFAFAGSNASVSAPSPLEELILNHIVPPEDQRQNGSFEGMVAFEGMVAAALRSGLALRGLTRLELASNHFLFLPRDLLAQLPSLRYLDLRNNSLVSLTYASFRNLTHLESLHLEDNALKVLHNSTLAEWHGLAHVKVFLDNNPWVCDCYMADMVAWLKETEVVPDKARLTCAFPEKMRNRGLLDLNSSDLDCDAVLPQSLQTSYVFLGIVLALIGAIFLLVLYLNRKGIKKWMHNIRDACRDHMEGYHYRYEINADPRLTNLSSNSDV
Excerpt: as §1

Q: “commercially available TPBG antibody (purchased from Sigma, Lot NO: SAB1404485)” was tested. Which Cellular MFI [1] did it give?
A: Its Cellular MFI is 135 MFI.

Q: And the Cellular MFI [2]?
A: The Cellular MFI was 798 MFI.

Q: What about the Cellular MFI [3] of the same molecule?
A: The Cellular MFI was 198 MFI.

Q: And the Cellular MFI [4]?
A: Its Cellular MFI is 33.4 MFI.

Q: And the Cellular MFI [5]?
A: Its Cellular MFI is 204 MFI.

Q: And the Cellular MFI [6]?
A: Its Cellular MFI is 126 MFI.

Q: And the Cellular MFI [7]?
A: The Cellular MFI was 27.2 MFI.

Q: And the Cellular MFI [8]?
A: The Cellular MFI was 172 MFI.

Q: And the Cellular MFI [9]?
A: The Cellular MFI was 145 MFI.

Q: What about the Cellular MFI [10] of the same molecule?
A: The Cellular MFI was 47.7 MFI.

Q: And the Cellular MFI [11]?
A: Its Cellular MFI is 131 MFI.

Q: And the Cellular MFI [12]?
A: The Cellular MFI was 31.8 MFI.

Q: And the Cellular MFI [13]?
A: Its Cellular MFI is 53.2 MFI.

Q: What about the Cellular MFI [14] of the same molecule?
A: The Cellular MFI was 70.6 MFI.

Q: What about the Cellular MFI [15] of the same molecule?
A: The Cellular MFI was 280 MFI.

Q: And the Cellular MFI [16]?
A: Its Cellular MFI is 13.2 MFI.

Q: What about the Cellular MFI [17] of the same molecule?
A: Its Cellular MFI is 168 MFI.

Q: And the Cellular MFI [18]?
A: Its Cellular MFI is 36.4 MFI.

Q: What about the Cellular MFI [19] of the same molecule?
A: Its Cellular MFI is 9.5 MFI.

Q: What about the Cellular MFI [20] of the same molecule?
A: Its Cellular MFI is 166 MFI.

Q: And the Cellular MFI [21]?
A: The Cellular MFI was 75.4 MFI.

Q: What about the Cellular MFI [22] of the same molecule?
A: Its Cellular MFI is 11.3 MFI.

Q: What about the Cellular MFI [23] of the same molecule?
A: The Cellular MFI was 91.8 MFI.

B1: mouse anti-TPBG monoclonal antibody 12B12C7C3 (antibody, V domains shown)
VH: DVQLVESGGGLVQPGGSRKLSCAASGFTFSNFGMHWVRQAPEKGLEWVAYISSGSTSFYYADTVKGRFTISRDNPKNTLFLQMTSLRSEDTAMYYCSRTNSLLRGFFDAWGAGTTVTVSS
VL: DIVLTQSPASLAVSLGQRATISCRASQSVSSSSYTYLHWYQQKPGQPPKLLIKSASNLESGVPARFSGTGSGTDFTLNIHPVEEEDTATYYCQHSWEIPLTFGAGTKLELK
notes: Mouse antibody purified from hybridoma supernatant; also called 12B12C7C3 (12B12 for short)
Q: How did the EC50 [24] turn out when B1 was run?
A: The EC50 was 0.59 nM.

Q: And the EC50 [25]?
A: Its EC50 is 0.65 nM.

Q: Does B1 bind [26]?
A: Result: no binding

B2: mouse anti-TPBG monoclonal antibody 28D4E6A9 (antibody, V domains shown)
VH: DVQLVESGGGLVRPGGSLKLSCAASGFTFSNYVMSWARQSPEKRLEWVAEISTGGSHTYYSDTVTGRFTISRDNAKKALYLEMSSLRSEDTAIYYCIMFYYGSSYSMDYWGQGTSVTVSS
VL: DIQMTQSTSSLSASLGDRITISCRASQDIRNYLNWYQQKPDGTVKLLIYHTSRLHSGVPSRFSGSGSGTDYSLTISNLEQEDIATYFCQQGDTLPLTFGAGTRLELK
notes: Mouse antibody purified from hybridoma supernatant; also called 28D4E6A9 (28D4 for short)
Q: How did the EC50 [24] turn out when B2 was run?
A: Its EC50 is 0.25 nM.

Q: And the EC50 [25]?
A: Its EC50 is 0.63 nM.

Q: Does B2 bind [26]?
A: Result: no binding
